pKd: −log10 of the molar value.
Key:
[1] = target: Recombinant mouse nidogen-2 protein (mouse) (UniProt O88322); test: ELISA
[2] = target: Recombinant mouse nidogen-2 protein (mouse) (UniProt O88322)

Sequence of UniProt O88322 (O88322 31-1403): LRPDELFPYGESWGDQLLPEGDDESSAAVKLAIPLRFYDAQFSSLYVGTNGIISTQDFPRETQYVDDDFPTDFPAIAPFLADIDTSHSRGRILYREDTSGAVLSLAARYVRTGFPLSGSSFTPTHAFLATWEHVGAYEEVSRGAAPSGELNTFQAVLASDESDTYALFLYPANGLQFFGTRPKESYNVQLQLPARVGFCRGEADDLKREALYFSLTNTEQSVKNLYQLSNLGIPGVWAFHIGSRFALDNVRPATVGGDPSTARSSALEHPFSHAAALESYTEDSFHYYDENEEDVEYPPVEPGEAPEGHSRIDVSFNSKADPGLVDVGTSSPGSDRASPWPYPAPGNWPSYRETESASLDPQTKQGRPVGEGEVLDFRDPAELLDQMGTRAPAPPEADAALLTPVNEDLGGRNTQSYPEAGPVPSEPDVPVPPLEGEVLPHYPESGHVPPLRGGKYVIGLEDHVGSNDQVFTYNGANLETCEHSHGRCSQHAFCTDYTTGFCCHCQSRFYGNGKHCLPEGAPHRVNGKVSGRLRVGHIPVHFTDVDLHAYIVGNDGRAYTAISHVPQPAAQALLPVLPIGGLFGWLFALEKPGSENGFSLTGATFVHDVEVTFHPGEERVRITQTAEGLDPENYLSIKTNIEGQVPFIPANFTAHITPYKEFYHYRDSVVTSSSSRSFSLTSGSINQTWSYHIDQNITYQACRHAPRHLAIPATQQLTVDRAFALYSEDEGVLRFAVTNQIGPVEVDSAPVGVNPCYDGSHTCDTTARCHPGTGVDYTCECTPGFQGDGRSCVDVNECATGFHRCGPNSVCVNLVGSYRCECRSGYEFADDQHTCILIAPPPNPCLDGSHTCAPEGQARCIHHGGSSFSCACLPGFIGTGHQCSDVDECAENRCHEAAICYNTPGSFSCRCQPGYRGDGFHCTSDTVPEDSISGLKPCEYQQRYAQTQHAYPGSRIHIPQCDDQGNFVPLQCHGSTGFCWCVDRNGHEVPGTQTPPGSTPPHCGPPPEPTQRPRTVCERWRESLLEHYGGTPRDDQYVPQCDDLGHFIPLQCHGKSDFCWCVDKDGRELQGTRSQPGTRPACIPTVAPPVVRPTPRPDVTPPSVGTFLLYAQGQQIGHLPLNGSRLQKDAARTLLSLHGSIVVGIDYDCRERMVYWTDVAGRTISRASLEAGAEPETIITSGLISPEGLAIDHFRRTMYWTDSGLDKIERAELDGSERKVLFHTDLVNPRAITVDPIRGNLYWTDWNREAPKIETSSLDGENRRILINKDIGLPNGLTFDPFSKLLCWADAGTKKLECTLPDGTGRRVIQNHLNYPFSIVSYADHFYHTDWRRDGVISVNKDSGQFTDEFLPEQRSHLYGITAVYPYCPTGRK

pKd [1] | Substance | uptake of HCT-555 in mouse motor neurons pre-incubated with 20 μM of the domain, against buffer; pair to be blocked: nidogen and endogenous LAR [2] | uptake of nidogen-2 in axons of mouse motor neurons pre-incubated with 20 μM of the domain, against buffer; pair to be blocked: nidogen and endogenous LAR [2]
5.25 | LAR FNIII1-4-FLAG (domain or fragment) |  | 
5.17 | LAR FNIII5-7-FLAG (domain or fragment) |  | 
5.85 | LAR FNIII5-FLAG (6×His-LAR FNIII5-FLAG) (domain or fragment) |  | 
5.00 | PTPRδ FNIII5-7-FLAG (domain or fragment) |  | 
5.70 | PTPRδ Ig1-3-His (domain or fragment) |  | 

Substance | pKd [1] | uptake of HCT-555 in mouse motor neurons pre-incubated with 20 μM of the domain, against buffer; pair to be blocked: nidogen and endogenous LAR [2] | uptake of nidogen-2 in axons of mouse motor neurons pre-incubated with 20 μM of the domain, against buffer; pair to be blocked: nidogen and endogenous LAR [2]
LAR FNIII2-FLAG (6×His-LAR FNIII2-FLAG) (domain or fragment) | 5.70 | 30% | 25%
LAR FNIII4-FLAG (6×His-LAR FNIII4-FLAG) (domain or fragment) | 5.72 | 30% | 25%
LAR FNIII7-FLAG (6×His-LAR FNIII7-FLAG) (domain or fragment) | 5.60 | 30% | 25%

From publication PMC11329502
